The text below walks through data of publication PMC11574021, “CEP192 localises mitotic Aurora-A activity by priming its interaction with TPX2” (The EMBO Journal, 2024).

One data set has as its system Aurora-A. The note with it: cited from earlier work; for effect on Aurora-A activity: ADP-Glo based assay, ref Park et al. 2023 Figure 3 F-H. The source says:
page 22: have elected to test PLK1 localization. In the absence of a direct test, they could nevertheless refer to the observations of Joukov et al. We find that PLK1 localisation is normal in ∆11 cells and have include d this new data (Fig. EV8) -Figure 5A-B: The scheme could be made clearer. Why is CEP192 depicted in blue and grey in panel A, green and grey in panel B (grey in scheme of excision sites). Why not use color consistently? […] We have ch ...
(ADP-Glo turns the ADP formed in a reaction into a luminescent signal.)

The next data set addresses T1, human CEP192 468–533 (human, UniProt Q8TEP8 468-533).
T1 construct: also called CEP192_(506-527_F); source: E. coli B834 RIL, purified (HisTrap, TEV cleavage, SEC); for crystallisation co-expressed with Aurora-A^M7KD and co-purified; not shown: His6, N-terminal, cleaved; SUMO, N-terminal, cleaved
T1 sequence (looked up): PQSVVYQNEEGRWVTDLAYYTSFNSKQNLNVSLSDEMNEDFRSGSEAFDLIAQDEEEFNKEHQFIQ
Briefly: ITC; 250 μM Aurora-A in the syringe, 25 μM CEP192 construct in the cell; 25 °C; 20 mM tris pH 7.5, 200 mM NaCl, 10% glycerol, 5 mM MgCl2. A general note: In ITC the heat of successive injections is recorded.

The target of data set [1] is T2, Aurora-A^CAKD (Aurora-A kinase domain, aa 122–403 C290A, C393A), unphosphorylated (human, UniProt O14965 122-403, C290A | C393A).
T2 construct: Aurora-A kinase domain, human, residues 122-403, variant lacking surface cysteines; also called Aurora-A 122–403 C290A C393A; unphosphorylated Aurora-A^CAKD; source: E. coli RIL, co-expressed with lambda phosphatase, purified (HisTrap, TEV cleavage, SEC); not shown: His6, N-terminal, cleaved
T2 sequence (looked up): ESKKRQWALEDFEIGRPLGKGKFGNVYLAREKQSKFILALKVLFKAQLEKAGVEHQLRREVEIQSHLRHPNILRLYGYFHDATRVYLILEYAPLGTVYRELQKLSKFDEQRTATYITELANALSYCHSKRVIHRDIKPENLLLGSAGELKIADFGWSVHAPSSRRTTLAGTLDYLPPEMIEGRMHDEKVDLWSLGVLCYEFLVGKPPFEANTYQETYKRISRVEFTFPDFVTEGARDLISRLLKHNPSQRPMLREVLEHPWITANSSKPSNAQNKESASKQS
The data set can be described thus: fluorescence polarisation; competition: 10 μM unphosphorylated Aurora-A^CAKD preincubated with 100 nM FAM-TPX2 7-43, CEP192 competitor serially diluted; 25 mM HEPES pH 7.5, 150 mM NaCl, 2 mM DTT, 5 mM MgCl2, 0.01% Tween 20. Conditions: both partners purified. Background: Fluorescence polarisation rises when a labelled molecule tumbles more slowly, as on binding a larger partner.

For data set [2], the target named is T2, Aurora-A^CAKD (Aurora-A kinase domain, …). The data set can be described thus: fluorescence polarisation; competition: 25 μM Aurora-A kinase domain preincubated with 100 nM FAM-TACC3 522-536, CEP192 competitor serially diluted; 25 mM HEPES pH 7.5, 150 mM NaCl, 2 mM DTT, 5 mM MgCl2, 0.01% Tween 20. The note with it: both partners purified.
Data set [3] has as its target T3, phosphorylated Aurora-A CAKD (Homo sapiens, UniProt O14965, C290A/C393A).
T3 construct: 10 nM Aurora-A 122–403 C290A C393A phosphorylated protein; His (N, cleaved yes); made in house; host or cells: E. coli B834 (no lambda phosphatase)
T3 sequence (O14965 122-403 C290A/C393A): T2 sequence (looked up)
Briefly: ADP-Glo kinase assay, kemptide substrate. Format: biochemical. How it is done:
Reactions were initiated by the addition of 10 μM ATP and 100 μM kemptide as substrate (Cambridge Bioscience Ltd). The reactions were incubated at room temperature for 60 min before 5 μl was transferred into 5 ul of ADP-Glo Reagent (Promega) in a 384-well low volume low binding plate (Greiner Bio-one). After a further 40 min at room temperature, 10 μl of kinase detection reagent was added to each well, and the reaction was allowed to incubate for an additional 30 min. Luminescence was measured on a HIDEX Sense plate reader (HIDEX) using a 1 s integration time. Control data was subtracted from the luminescence and three repeats were averaged before being fitted to a sigmoidal plot using Origin (OriginLab), where IC50 and EC50 values were calculated.

The target in data set [4] is T3, phosphorylated Aurora-A CAKD. Briefly: Fluorescence anisotropy competition with FAM-CEP192 501-533, phosphorylated Aurora-A. Format: binding. Conditions: competition with 100 nM FAM-CEP192 501-533, 10 μM phosphorylated Aurora-A CAKD, n = 3. How it is done:
(§1) Assays were performed in 25 mM HEPES pH 7.5, 150 mM NaCl, 2 mM DTT, 5 mM MgCl2, 0.01% Tween 20. For CEP192 and TPX2 competition assays 10 μM Aurora-A kinase domain (phosphorylated or unphosphorylated C290A C393A 122–403) was preincubated on ice with 100 nM FAM-TPX2 7-43 or 100 nM FAM-CEP192 501–533. For TACC3 competition, due to weaker binding, 25 μM Aurora-A kinase domain (phosphorylated or unphosphorylated C290A C393A 122–403) was preincubated with 100 nM FAM-TACC3 522-536. Serial dilutions of competitor (CEP192) were performed in triplicate into a low volume 384-well black plate, before the premixed Aurora-A and tracer were added. A control row included no tracer. Plates were left incubating for 1 h at room temperature before the fluorescence anisotropy was measured using a HIDEX plate reader, with excitation at 485 nm and emission at 535 nm. For direct binding experiments, the assay was performed as above, but the Aurora-A (122–403 C290A C393A or point mutants) was diluted across the plate from high to low concentration, before the addition of 50 nM tracer (FAM-CEP192 501–533) to three replicate rows. Buffer only was added to the control row.
(§2) Fluorescence anisotropy data were processed using Microsoft Excel to calculate intensity and anisotropy using the equation listed in (Yeo et al, [2013]). The IC50 and Kd values were calculated using Origin (OriginLab) where the data fitted to a sigmoid and are summarised in Appendix Table S3.

In data set [5] the target is T4, unphosphorylated Aurora-A CAKD (Homo sapiens, UniProt O14965, C290A/C393A).
T4 construct: 10 μM Aurora-A kinase domain (phosphorylated or unphosphorylated C290A C393A 122–403); His (N, cleaved yes); made in house; host or cells: E. coli RIL, co-expressed with lambda phosphatase
T4 sequence (O14965 122-403 C290A/C393A): T2 sequence (looked up)
Briefly: Fluorescence anisotropy competition with FAM-CEP192 501-533, unphosphorylated Aurora-A. The class given is binding. The note with it: competition with 100 nM FAM-CEP192 501-533, 10 μM unphosphorylated Aurora-A CAKD, n = 3. How it is done:
as §1, §2

Substitutions are numbered along the chain they refer to. Names and notes keep the numbering of the source. Where no end group is shown, it is not given here. FAM = 5(6)-carboxyfluorescein

In the case of “CEP192 506-536: short CEP192 fragment used by Park et al 2023 (EDFRSGSEAFDLIAQDEEEFNKEHQFIQEEN; UniProt Q8TEP8 506-536, looked up, fragment)”, the “effect on Aurora-A activity” value in the data set on Aurora-A was “no effect seen”.

The term Kd denotes a measure of binding affinity in units of concentration. As usually defined, the stoichiometry N is a count of units in the complex or per binding partner. As to “Aurora-A^KD F165D/R205A (Aurora-A 122–403 R205A F165D) (from UniProt O14965 122-403) (domain or fragment)”, in the data set with human CEP192 468–533, the Kd was 26 µM and the stoichiometry N turned out to be 0.87.

B1: FAM-TPX2 7-43 (peptide, UniProt Q9ULW0 7-43, looked up)
peptide: {FAM}-SYSYDAPSDFINFSSLDDEGDTQNIDSWFEEKANLEN
notes: TPX2, residues 7-43; Made on Rink amide resin and labelled on resin after synthesis, so N-terminal label and C-terminal amide are likely; source: synthetic peptide
For the molecule B1, the binding result in data set [1] is listed as “binds”.

B2: FAM-TACC3 522-536 (peptide, UniProt Q9Y6A5 522-536, looked up)
peptide: {FAM}-EESFRDPAEVLGTGA
notes: Made on Rink amide resin and labelled on resin after synthesis, so N-terminal label and C-terminal amide are likely; source: synthetic peptide
On to B2, for which the binding result in data set [2] is reported as “binds”.

B3: CEP192 521-757: recombinant GST-tagged CEP192 521-757 with the Xenopus CEP192 binding site (Joukov et al 2010) (protein, UniProt Q8TEP8 521-757, looked up, fragment)
chain: DEEEFNKEHQFIQEENIDAHNTSVALGDTSWGATINYSLLRKSRSTSDLDKDDASYLRLSLGEFFAQRSEALGCLGGGNNVKRPSFGYFIRSPEKREPIALIRKSDVSRGNLEKEMAHLNHDLYSGDLNEQSQAQLSEGSITLQVEAVESTSQVDENDVTLTADKGKTEDTFFMSNKPQRYKDKLPDSGDSMLRISTIASAIAEASVNTDPSQLAAMIKALSNKTRDKTFQEDEKQK
modifications: GST tag
As to B3, the “effect on Maskin/TACC3 phosphorylation by Aurora-A” value in the data set with Aurora-A (Xenopus egg extract, ref Joukov et al. (2010) Figure 4C) is listed as “lower levels of Maskin/TACC3 phosphorylation”. Besides, the “effect on Aurora-A autophosphorylation at Thr288 and Histone H3 phosphorylation” value in the data set on Aurora-A (recombinant GST-tagged CEP192, western blot, ref Joukov et al. (2010) Figure 3G) is on record as “prevents autophosphorylation of Aurora-A at Thr288”.

B4: CEP192 468-533 Y487A/F490A: CEP192 468-533 mutant, two F-pocket residues replaced with alanine (protein)
chain: T1 sequence (looked up) with Y20A, F23A
modifications: left off: His6, N-terminal, cleaved | SUMO, N-terminal, cleaved
notes: CEP192 468-533 mutant, two F-pocket residues replaced with alanine
What is called IC50 is the concentration at which inhibition is half-maximal. With B4, the IC50 in data set [3] (10 nM phosphorylated Aurora-A CAKD, 10 μM ATP, 100 μM kemptide, 60 min, n = 3) was over 1 µM; in data set [4], 5.39 µM; in data set [5], 6.9 µM. Further, the “effect on Aurora-A kinase activity” value in data set [3] (ADP-Glo, phosphorylated Aurora-A CAKD, kemptide, in words) is “less potent and less complete”.

B5: CEP192 468-533 F490D/F508D/I518D: CEP192 468-533 variant replacing hydrophobic residues recognising two regions of N-lobe (protein)
chain: T1 sequence (looked up) with F23D, F41D, I51D
modifications: left off: His6, N-terminal, cleaved | SUMO, N-terminal, cleaved
notes: CEP192 468-533 variant replacing hydrophobic residues recognising two regions of N-lobe
B5: the IC50 in data set [4] and in data set [5] was over 10 µM throughout.

B6: CEP192 468-533 F508D/I518D/F525D: CEP192 468-533 triple mutant (protein, UniProt Q8TEP8 468-533, looked up, variant F508D I518D F525D)
chain: T1 sequence (looked up) with F41D, I51D, F58D
On to B6, for which the IC50 in data set [4] and in data set [5] was over 10 µM each time.

B7: CEP192 501–533 peptide (unlabelled) (peptide, UniProt Q8TEP8 501-533, looked up)
peptide: SDEMNEDFRSGSEAFDLIAQDEEEFNKEHQFIQ
notes: Probably synthesised as the labelled peptides (Rink amide resin); source: peptide
Take B7: in data set [2], the concentration for half-maximal inhibition (IC50) amounted to 29 µM.

B8: CEP192 1-995: longer CEP192 fragment used by Park et al 2023 (protein, UniProt Q8TEP8 1-995, looked up, fragment)
chain: MEDFRGIAEESFPSFLTNSLFGNSGILENVTLSSNLGLPVAVSTLARDRSSTDNRYPDIQASYLVEGRFSVPSGSSPGSQSDAEPRERLQLSFQDDDSISRKKSYVESQRLSNALSKQSALQMETAGPEEEPAGATESLQGQDLFNRASPLEQAQDSPIDFHLQSWMNNKEPKIVVLDAGKHFEDKTLKSDLSHTSLLENEKLILPTSLEDSSDDDIDDEMFYDDHLEAYFEQLAIPGMIYEDLEGPEPPEKGFKLPTNGLRQANENGSLNCKFQSENNSSLISLDSHSSETTHKESEESQVICLPGTSNSIGTGDSRRYTDGMLPFSSGTWGTEKEIENLKGIVPDLNSECASKDVLVKTLRAIDVKLNSDNFHDANANRGGFDLTDPVKQGAECPHQNKTVLHMDGCLDTETPTVSIQENVDVASLKPISDSGINFTDAIWSPTCERRTCECHESIEKNKDKTDLPQSVVYQNEEGRWVTDLAYYTSFNSKQNLNVSLSDEMNEDFRSGSEAFDLIAQDEEEFNKEHQFIQEENIDAHNTSVALGDTSWGATINYSLLRKSRSTSDLDKDDASYLRLSLGEFFAQRSEALGCLGGGNNVKRPSFGYFIRSPEKREPIALIRKSDVSRGNLEKEMAHLNHDLYSGDLNEQSQAQLSEGSITLQVEAVESTSQVDENDVTLTADKGKTEDTFFMSNKPQRYKDKLPDSGDSMLRISTIASAIAEASVNTDPSQLAAMIKALSNKTRDKTFQEDEKQKDYSHVRHFLPNDLEKSNGSNALDMEKYLKKTEVSRYESALENFSRASMSDTWDLSLPKEQTTQDIHPVDLSATSVSVRAPEENTAAIVYVENGESENQESFRTINSSNSVTNRENNSAVVDVKTCSIDNKLQDVGNDEKATSISTPSDSYSSVRNPRITSLCLLKDCEEIRDNRENQRQNECVSEISNSEKHVTFENHRIVSPKNSDLKNTSPEHGGRGSEDEQESFRPSTSPLSHSS
Turning to B8, in the data set with Aurora-A, the “effect on Aurora-A activity” value is recorded as “no effect seen”.
